From the supplement of paper PMC9170038

Test system: K4 kissing-loop RNA reporter
Test: apparent KD of K4 kissing-loop reporter; higher = weaker reporter binding
Settings: Eterna round: R107
Procedure: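 RNA-MaP round R107: designed RNA switches with theophylline, tryptophan, arginine or FMN aptamers are transcribed on-chip within common flanks. They are titrated with a labelled K4 kissing-loop RNA reporter in RNA-MaP buffer (100 mM Tris pH 7.5, 80 mM KCl, 4 mM MgCl2), without ligand or with the indicated ligand. Median apparent KD per design.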

[1] = input ligand: theophylline 20 uM
[2] = input ligand: tryptophan 2.4 mM
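Note: bound reporter read as fluorescence of individual clusters on recovered sequencing chips by microscopy, with normalized cluster intensities fitted with a binding model.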

| Sequence | apparent KD of K4 kissing-loop reporter (input ligand: FMN 200 uM) | apparent KD of K4 kissing-loop reporter (input ligand: arginine 13.2 mM) | apparent KD of K4 kissing-loop reporter (input ligand: none) | apparent KD of K4 kissing-loop reporter [1] | apparent KD of K4 kissing-loop reporter [2] |
| --- | --- | --- | --- | --- | --- |
| CAUAGGAAACUAUGUAUCUCUCUGACUGAAGGAGCGCGUGAAAACGCAGGUAGGUCGCAGAAUUUAACAGAGAGUGAUGUUCUCU [Ex Arginine A K4 9] | 310 nM | 259 nM | 319 nM | 277 nM | 258 nM |
| CAUAGGAAACUAUGUAUCUCUCUUACUGAAGGAGCGCGUGAAAACGCAGGUAGGUCGCAGAAUUUAAUAGAGAGUGAUGUUCUCA [Ex Arginine A K4 6] | 393 nM | 332 nM | 496 nM | 513 nM | 473 nM |
| CAUAUUUCGGCGGCCGCCACUGACCAUAGCCUUCGAUGGCCAGUGAUGUUGGCCUCUGGCUCUAACAGGACCGGGCCGAAUUGUG [Uslaxe] | 239 nM | 137 nM | 198 nM | 145 nM | 116 nM |
| CAUCCUACACCUCAAGCAGUGAUGUUGCUACGAGGACCGGUACGGCCGCCACUCGUUUAAGCAUGGAUAUUAGCUGUGCUGACUA [theeternabot_exclusion_KL_Trp_A_16] | 468 nM | 458 nM | 461 nM | 576 nM | 439 nM |
| CAUGUGUCUGGAAGGAGCGCGGGUUGGUUAAACACUGUCGCGGGCCAGUGAUGUUGGAAUCCGCAGGUAGGUCGCCAGCCACUUG [Araton] | 284 nM | 476 nM | 350 nM | 533 nM | 460 nM |
| CAUUCUAAAUGCAGUGAUGUUGCAACUGAUACCAGUAUCGAAAGAUACCCUUGGCAGCGGAAAACCGCUACGUUUUUUUAGAAUG [Ex Theophylline A K4 23] | 264 nM | 369 nM | 352 nM | 438 nM | 243 nM |
| CCACUAUUCUUGUCGGAGUGAUGUUCCGAUACCAGCAUAGAGAUGUGCCCUUGGCAGCGGUCUAUUCUACGCCCGUCUAUUUCAA [Somari] | 165 nM | 125 nM | 135 nM | 157 nM | 148 nM |
| CCAGGUGGAAAAGGAUAUCUAGGAGUGAUGUUCCAUAUGAAAUUAGUUUAUCACCAAACGUCGACCAGAGAAGGUUUCCCAAUUU [theeternabot_exclusion_KL_FMN_B_31] | 246 nM | 252 nM | 287 nM | 489 nM | 254 nM |
| CCAUAUUCGUCGGCCGCCACUAUAAGCCAUCAUACAUUGGCUCUGUGAAAGUGAUGUUUUCUUGAUAGGACCGGGACUGUCAGCA [theeternabot_sameState_KL_Trp_B_24] | 975 nM | 739 nM | 1020 nM | 903 nM | 646 nM |
| CCAUCGCUAUUCGAUACCAGCCAAGAGGUCUUUGGCCUCUUAUUGGAGUGAUGUUCCAUUGGCCCUUGGCAGCGAAUAGUGAUGG [Theophylline B K4 17] | 356 nM | 192 nM | 343 nM | 541 nM | 275 nM |
| CCAUCGCUAUUCGAUACCAGCUACUUAGUGAUGUUAAGUUAAAAUCCACUGUAGGUGGAAAGCCCUUGGCAGCGAAUAGUGAUGG [Theophylline B K4 23] | 235 nM | 189 nM | 205 nM | 117 nM | 203 nM |
| CCAUCGCUAUUCGAUACCAGCUACUUAGUGAUGUUAAGUUAAAAUUAAUUGUAGAUUAAAAGCCCUUGGCAGCGAAUAGUGAUGG [Theophylline B K4 20] | 159 nM | 141 nM | 154 nM | 119 nM | 152 nM |
| CCAUCGCUAUUCGAUACCAGCUCCUUAGUGAUGUUGAGGUUUUACCCACUGUAGGUGGGAAGCCCUUGGCAGCGAAUAGUGAUGG [Theophylline B K4 29] | 523 nM | 217 nM | 430 nM | 480 nM | 816 nM |
| CCAUCGCUAUUCGAUACCAGUCAAUAGGUCUUUGGCCUAUUAAUGGAGUGAUGUUCCUUAGACCCUUGGCAGCGAAUAGUGAUGG [Theophylline B K4 12] | 258 nM | 215 nM | 260 nM | 166 nM | 241 nM |
| CCAUCGCUAUUCGAUACCAGUCAGGAGGUCUAUGACCUCCUAAUGGAGUGAUGUUCCUUAGACCCUUGGCAGCGAAUAGUGAUGG [#01 K4 Theophylline B Same State] | 509 nM | 480 nM | 569 nM | 338 nM | 534 nM |
| CCAUCGCUAUUCGAUACCAGUCAUUUUUUAUUUUAUUUUUUUUUUGGAGUGAUGUUCCAAGACCCUUGGCAGCGGAUAGUGAUGG [whbob_SS_Theo_B_th79] | 117 nM | 150 nM | 117 nM | 158 nM | 109 nM |
| CCAUCGCUAUUCGAUACCAGUCUUCGUAGGAAACUACGUCUGCAAAGGAGUGAUGUUCCAGACCCUUGGCAGCGAAUAGUGAUGG [Theophylline B K4 4] | 771 nM | 553 nM | 1110 nM | 444 nM | 799 nM |
| CCAUUCAUUUACGAUACCAGUCUAAUAUAUUUGAUCAAAACCCUCGCCGAGUGAUGUUCGGACCCUUGGCAGCGUCUGGGACAGG [eesetmullin] | 477 nM | 325 nM | 503 nM | 403 nM | 414 nM |
| CCAUUCUUUUACGAUACCAGUUUAAUUUAUUUAUUCAUAACCCUUGCCGAGUGAUGUUCGGACCCUUGGCAGCGUUUGCGAGAGG [vvuvmullin] | 331 nM | 314 nM | 463 nM | 485 nM | 358 nM |
| CCCAAGGGCGAACCGGUAUGAUCACCGGAUACCAGAGGCGAAAGCCUCCCUUGGCAGCCGGUUGUAGUGAUGUUACACUGGUUCU | 91.4 nM | 74.6 nM | 88.7 nM | 118 nM | 87.7 nM |
| CCCAGUGAUGUUGGGAGUAGCCACAGGGAAGGAGCGUGCUAGAGCACAGGUAGGUCGCCCACUGGGUCAGUGAUGUUGGUCGGGU [Same State Arginine A GF 28] | 275 nM | 178 nM | 186 nM | 361 nM | 208 nM |
| CCCUCACGAGUGAUGUUCGUAGGGUACAGUCAGGAUAUCAUGCGGUUGAGAAGGGACAGAGAGGGCGGCCACGGGUUGCUCAUCU [Tiongequ] | 187 nM | 288 nM | 372 nM | 435 nM | 390 nM |
